Earlier results as cited in paper PMC9254699 (Biomaterials science, 2021).

Columns and labels:
TGF-β1 [1] = molecular target: T1, TGF-β1 (Homo sapiens, UniProt P01137)
TGF-β1 [2] = molecular target: T1, TGF-β1; remark: listed apart in the source

T1 sequence (P01137 279-390 limits assumed, species assumed): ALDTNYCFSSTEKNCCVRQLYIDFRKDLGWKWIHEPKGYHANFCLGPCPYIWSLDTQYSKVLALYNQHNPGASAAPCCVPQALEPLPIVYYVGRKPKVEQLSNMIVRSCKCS

| Molecule | direct binding to TGF-β1 or its receptors (TGF-β1 [1]) | activity against TGF-β1, preclinical anti-fibrotic (TGF-β1 [2]) |
| --- | --- | --- |
| decorin: molecule with activity against TGF-β1, explored preclinically as anti-fibrotic (protein, UniProt P07585 31-359, looked up) Decorin: DEASGIGPEVPDDRDFEPSLGPVCPFRCQCHLRVVQCSDLGLDKVPKDLPPDTTLLDLQNNKITEIKDGDFKNLKNLHALILVNNKISKVSPGAFTPLVKLERLYLSKNQLKELPEKMPKTLQELRAHENEITKVRKVTFNGLNQMIVIELGTNPLKSSGIENGAFQGMKKLSYIRIADTNITSIPQGLPPSLTELHLDGNKISRVDAASLKGLNNLAKLGLSFNSISAVDNGSLANTPHLRELHLDNNKLTRVPGGLAEHKYIQVVYLHNNNISVVGSSDFCPPGHNTKKASYSGVSLFSNPVQYWEIQPSTFRCVYVRSAIQLGNYK | do not directly bind TGF-β1 or its receptors | activity against TGF-β1 |
| γ-interferon: molecule with activity against TGF-β1, explored preclinically as anti-fibrotic (protein, UniProt P01579 24-161, looked up) Interferon gamma: QDPYVKEAENLKKYFNAGHSDVADNGTLFLGILKNWKEESDRKIMQSQIVSFYFKLFKNFKDDQSIQKSVETIKEDMNVKFFNSNKKKRDDFEKLTNYSVTDLNVQRKAIHELIQVMAELSPAAKTGKRKRSQMLFRG | do not directly bind TGF-β1 or its receptors | activity against TGF-β1 |
